This data set deals with pro-uPA (pro-urokinase-type plasminogen activator, single-chain zymogen form of uPA) (UniProt P00749).

Sequence of soluble His-tagged hepsin comprising the entire extracellular domain of human hepsin (Arg45-Leu417) (chain, as listed by the source): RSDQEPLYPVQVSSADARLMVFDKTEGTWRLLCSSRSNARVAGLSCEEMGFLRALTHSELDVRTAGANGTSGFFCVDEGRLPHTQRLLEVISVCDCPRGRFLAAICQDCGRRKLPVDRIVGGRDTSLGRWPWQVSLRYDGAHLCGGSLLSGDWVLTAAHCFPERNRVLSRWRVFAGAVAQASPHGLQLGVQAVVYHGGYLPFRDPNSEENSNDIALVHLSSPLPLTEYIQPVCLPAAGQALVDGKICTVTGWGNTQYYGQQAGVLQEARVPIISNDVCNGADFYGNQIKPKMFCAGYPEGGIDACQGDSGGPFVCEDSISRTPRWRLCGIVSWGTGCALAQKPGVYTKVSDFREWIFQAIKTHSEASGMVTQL

For the substance “soluble His-tagged hepsin comprising the entire extracellular domain of human hepsin (Arg45-Leu417)”, the “cleavage of pro-uPA (SDS-PAGE, 1.5 uM pro-uPA, 15 nM hepsin)” value was “Incubation of pro-uPA with hepsin resulted in a time-dependent cleavage of the single-chain form into the two-chain form”; the k (first-order rate constant of pro-uPA activation) stood at 0.0871 min⁻¹; the kcat/Km of pro-uPA activation worked out at 484000 M⁻¹ s⁻¹.

The record behind these values is patent US20100061996.
